Where only a bound is given, the exact number is not on record here.

This is an account of results in US20260167681A1 (POSTECH RESEARCH AND BUSINESS DEVELOPMENT FOUNDATION, published 2026).

The assay has as its target T1, ovalbumin (OVA) (UniProt P01012 2-386).
T1 construct: also called model antigen ovalbumin
T1 sequence (looked up): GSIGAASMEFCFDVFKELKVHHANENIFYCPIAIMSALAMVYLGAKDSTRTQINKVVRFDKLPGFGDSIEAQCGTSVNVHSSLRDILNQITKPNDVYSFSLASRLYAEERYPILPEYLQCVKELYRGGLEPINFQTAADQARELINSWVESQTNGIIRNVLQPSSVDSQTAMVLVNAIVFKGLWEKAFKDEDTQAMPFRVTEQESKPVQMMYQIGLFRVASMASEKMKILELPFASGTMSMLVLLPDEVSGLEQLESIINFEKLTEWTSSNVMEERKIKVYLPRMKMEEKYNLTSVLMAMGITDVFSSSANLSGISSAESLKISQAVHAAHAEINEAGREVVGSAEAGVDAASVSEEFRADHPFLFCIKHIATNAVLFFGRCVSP
The assay is described as follows: zeta potential (DLS, Zetasizer) of ovalbumin/MAP-AP mixtures at weight ratios 2, 1 and 0.5. How it is done: First, ovalbumin and the adhesive adjuvant protein (MAP-AP) were prepared at a concentration of 1 mg/mL each, and nanocomplexes were then prepared with ovalbumin and MAP-AP at weight ratios of 2, 1, and 0.5, respectively. Dynamic light scattering (DLS, Zetasizer, UK) was used to measure the surface charge of the samples. The concentration of each substance was maintained below 1 mg/mL, and all measurements were performed at room temperature.
As a result, the spontaneous formation of nanocomplexes by the negatively charged ovalbumin and adhesive adjuvant protein (MAP-AP) was confirmed through changes in surface charge. When the mass ratio of ovalbumin to MAP-AP reached 1 or higher, the adhesive adjuvant protein (MAP-AP) became saturated, and the mass ratio was ultimately set to 1.

B1: adhesive adjuvant protein (MAP-AP; MAP-based Adjuvant Protein) (other)
chain: MAKPSYPPTYKAKPSYPPTYKAKPSYPPTYKAKPSYPPTYKAKPSYPPTYKAKPSYPPTYKPWSSEEYKGGYYPGNTYHYHSGGSYHGSGYHGGYKGKYYGKAKKYYYKYKNSGKYKYLKKARKYHRKGYKKYYGGGSSAKPSYPPTYKAKPSYPPTYKAKPSYPPTYKAKPSYPPTYKAKPSYPPTYKAKPSYPPTYKLGGGGSAKFVAAWTLKAAA
notes: Recombinant fusion protein made in E. coli; also called MAP-based Adhesive adjuvant protein
For B1, the “mass ratio of ovalbumin to MAP-AP at which MAP-AP is saturated” value is ≥ 1 mass ratio (ovalbumin:MAP-AP).
